The test concerns breast cancer cells (MCF7). As to the kind of experiment: CCK8 cell viability detection, MCF7. Type of test: cell-based, human. On the procedure:
CCK8 cell viability detection: cell suspension was seeded in 96-well plates at a concentration of 5×10^4 cells/ml (100 μL/well). The plates were placed in the incubator for pre-culture (at 37° C., 5% CO2), and control and protein agents were added to each well 24 h after seeding. The plates were then placed in the incubator for 24 h, followed by addition of 10 μL CCK8 solution into each well and incubation of the plates in the incubator for 0.5-2 h before the absorbance measurement at 450 nm using a microplate reader.
We constructed GhJAZ1 prokaryotic expression plasmid with His-tag to express proteins (see step 2 in Example 4), and then a GhJAZ1 protein, along with 6 His tags, which was approximately 30 KD in size was found by WB detection (A in FIG. 7). The purified GhJAZ1 protein was used to treat breast cancer cells (MCF7) and breast epithelial cells (MCF10A), and the cell viability was measured with CCK8.

B1: GhJAZ1: cotton JAZ1 protein, gene number Gh_A05G0260, sequence SEQ ID No. 4; prokaryotically expressed with His tag, about 30 KD (protein)
chain: MSSCSESTAMKPARSPEKPSFAQTCNLLSQYLKEKGSFGDLSLGMTCNVEANGTPVVPPPTMNLFPLNDKSDDVCGRNGGNPKNLTSMDLFPQQAGLASKDDSPNKLEPQTAPMTIFYGGQVIVFNDFPANKAKEIMLLASNSSSQSNNSFNPIPFTSSIARSPIESSIGVPPTSKPVHPAQRAVPGDLPIARRASLHRFLEKRKDRITAKAPYQINNSAAAPSLSGDNKSWLGLAAQSP
modifications: His tag
notes: prokaryotically expressed with His tag, about 30 KD
A word on the IC50: it is the concentration needed to halve the response being measured. With B1, for the setting “CCK8, 24 h treatment, read-out: IC50, inhibition of MCF7 cells”, the IC50 is 0.691 µM. Also, for the setting “with the increase of GhJAZ1 protein concentration”, the “viability of MCF7 cells” value is recorded as “decreased significantly”.
